For the experiment, the target named is S318-510 fragment (amino acids 318-510 of the S protein of SARS-CoV strain Frankfurt 1) (SARS-CoV strain Frankfurt 1, UniProt P59594 318-510).

Where “and” joins values, the source holds several entries; their conditions need not be identical. Equal values may be shown once.

For orientation: Kd means the equilibrium constant for the complex coming apart. A high value points to lower affinity.

B1: CR03-014 (antibody, V domains shown)
VH: EVQLVESGGGLVQPGGSLRLSCAASGFTFSDHYMDWVRQAPGKGLEWVGRTRNKANSYTTEYAASVKGRFTISRDDSKNSLYLQMNSLKTEDTAVYYCARGISPFYFDYWGQGTLVTVSS
VL: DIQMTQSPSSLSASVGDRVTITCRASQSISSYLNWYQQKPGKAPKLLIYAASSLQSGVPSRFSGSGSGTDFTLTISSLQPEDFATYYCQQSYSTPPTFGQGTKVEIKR
For the molecule B1, the Kd was 16.3 nM and 14.8 nM.
